The nature of this series: soluble on expression in E. coli; label from the status in PepcDB or PDB records.
As to “QSDEWRRTTRLLGEILEDTTRPPLERLRRLVLAFVRSECEEAAIRVALSDAAPLYRDADEAREVKAEGARVFQAFLREALPEVAEAERSLAGDLLTTTLGAVGKQFSEQPRSEAEIERYAEALADMLCAYLAALGER”, the “soluble on expression in E. coli” value is “not soluble”.

On to “MPLPMNSGEKVKAVGRSYNPGRPLCLEDRKKIVRLYEEGCRVSHIARLIGVTHSCVSKIMSRYRRTGSVQPRSFRATENQENDNATWQQQQLKQQQKKEKPLPFSIERF”, for which the “soluble on expression in E. coli” value was “soluble”.

As to “MGSDKIHHHHHHMHPKSPLTMQQSSVFIDSEVLLDDRKFAEAMLLKKDKAGLSRADMVFVLRNLLRLKYYPVAVKFFYDEAEVEKFKAEHEYLVACNPFTFCHFCAESRQKGDVLFGERRTLGCSNARYLFGWKDYDENEIKSHMKYVKDREQAERFVKTKPRLPEGLLAFATAPLHKAKFEPDLVFIICDVLQSYHLYNDYAAAMDVHPIRPNFMMNSAACGGAVWSYVENTINIVPMCSGSYTAGKTEQGEINVFIPWAHFEKLVVRLLERTASQGGASFPRTGETYPGFDICKLCNFLLFRKPKEDE”, the “soluble on expression in E. coli” value is reported as “not soluble”.

Consider “GKDFKYNIGFNLSDVKNKVIDLRGYKSSTTELTAKIEGQPLNAIFGFETLGICDNQELYDKYAPMMQKYNPKWGMGDIIIKDRTGEGVINDEDRTVIGNSIPRFTFGLNLGFEYKGFDFSCFFQGVGKADGYVTMEAIQPMGINGARKEHYKESFNPQDPKPGAYFPRILSSDYNYAYMSHWVQDASYIRLKNLQIGYSFKIKGLNQLRVYASGENLFTATKYRTWDPETPVGARGFYPNVAVYSMGVNLNF”, for which the “soluble on expression in E. coli” value is recorded as “not soluble”.

Regarding “MGSDKIHHHHHHAQKGVDNGTQFGSGEDSVRCITNISLFVPYAKAGNFKDAYDFWKIVYDECPAATKDIYLYGVKIMGWKIAQEKDPAKKNALIDDLMGVYDKRVKYFGNDRRYGKDWIVARKVQDYLAQTGDNADYNQAYTWLKEIVDEKGADTEALGLSLFSFSSMKKMLNDPNFKEQYIQDYLKVSAGLDAQLKAAQAANNQKEVNALTAYKSGVDNAFANSGAADCETLQNLYAAKIEENKDNLPYLKETISLLRRTGCQEIEAYFLASDYAYRQEPSAEAAVGLGKKAVKIKDYDTAIKYFDEAANLETDATSKADDYYMIALLLFEQNAYSKARQYCQKALEVNPNYGNAYLLIGKMYAATSKSVFPNDGVLARAAYNAAIDKFEKAKQVDPSVAEEANTLISSYRAHLPSTEEIFMHPDLEKGKPFTVGGWIGERTTIR”, the “soluble on expression in E. coli” value is recorded as “not soluble”.

Take “MSLVKISNVRVRPLVLPLKQPYHWSYGIRESFAVNLIEIEADDGTVGIGECTVAPDQTGTAAILYRLAKHLVGHSPHDVAPLIARIFHQEYLGHGANIMRAANQIFSGIDMAMWDLQGKLAGLPVHQLLGGAHRKAVGYFYFLQGETAEELARDAAVGHAQGERVFYLKVGRGEKLDLEITAAVRGEIGDARLRLDANEGWSVHDAINMCRKLEKYDIEFIEQPTVSWSIPAMAHVREKVGIPIVADQAAFTLYDVYEICRQRAADMICIGPREIGGIQPMMKAAAVAEAAGLKICIHSSFTTGITTCAEHHIGLAIPNLDDGNQIMWQLVQEDIVSSPDLTPKNGWLDAFRKPGLGFQLAEDLVAEGEGRYAASREGHHHHHH”: the “soluble on expression in E. coli” value was “soluble”.

Take “MGGSHHHHHHGMASMTGGQQMGRTLYDDDDKDRWGSRKIVVVGGVAGGASVAARLRRLSEEDEIIMVERGEYISFANCGLPYYIGGVITERQKLLVQTVERMSKRFNLDIRVLSEVVKINKEEKTITIKNVTTNETYNEAYDVLILSPGAKPIVPSIPGIEEAKALFTLRNVPDTDRIKAYIDEKKPRHATVIGGGFIGVEMVENLRERGIEVTLVEMANQVMPPIDYEMAAYVHEHMKNHDVELVFEDGVDALEENGAVVRLKSGSVIQTDMLILAIGVQPESSLAKGAGLALGVRGTIKVNEKFQTSDPHIYAIGDAIEVKDFVTETETMIPLAWPANRQGRMLADIIHGHTDSLYKGTLGTSVAKVFDLTVATTGLNEKILKRLNIPYEVVHVQANSHAGYYPNATPVLIKLIFNKDSGKIYGAQTLGRDGVDKRMDVIATAIKANLTVLDLPDLELSYAPPYSSAKDPVNMVGYAASNIVDGFVDTVQWHEIDRIVENGGYLIDVREPNELKQGMIKGSINIPLDELRDRLEEVPVDKDIYITCQLGMRGYVAARMLMEKGYKVKNVDGGFKLYGTVLPERIVY”: the “soluble on expression in E. coli” value was “soluble”.

As for “MSLFEQLDELAAQGKPAALLTIVRKDGSAPRDVGDKMIVTADEEYGTIGGGTVEHLAVQDARSVLSGADDPGIRTYELERGGNTGMVCGGEMDVFIDHVRGQAQLYIAGGGHISVELAPLAERLGYAVTVVDDREAYADPTQFPDETDVIHGEYGEALGDLPMGTETAVAVATRSGTFDQAAVAAALDGEAGYVGLVASETKANHVLDSLAESGYARRDLSRVQTPVGLDLGGSGPAAVALSVLAEVTMDRHDATGARATRLNLDDLVVVRGGGDLGSGVVYRLQQAGFPVIVTEVDQPTVVRRAVAFGAALYEDEVEVEGVTGRAAADIDEALELLADDVVPVLVDPEATVADDLDAAVLVDAIMAKGAFDTGTRREDADVVVGMGPGFEAGEDVDAVVETDRGHELGRVFYDGTASEYDGEPGERRGYTHERVLRAPTDGEWTPTVAIGDSVTAGDVVGTVGDRPVETEIDGLVRGLVHGGLSVSEGTKLGDVDPRGESVDPTKISDKALCLGGGVLEAVLRLRLEHHHHHH”, the “soluble on expression in E. coli” value is given as “not soluble”.

For the sequence “MPLLDSFTVDHTRMNAPAVRVAKTMQTPKGDTITVFDLRFTMPNKDILSERGIHTLEHLYAGFMRNHLNGSQVEIIDISPMGCRTGFYMSLIGAPTEQQVAQAWLAAMQDVLKVESQEQIPELNEYQCGTAAMHSLEEAKAIAKNVIAAGISVNRNDELALPESMLNELKVH”, the “soluble on expression in E. coli” value was “not soluble”.

In the case of “MGSDKIHHHHHHMAKTPANKNDQTKDGRFEEALWDAANKLRGSVESSEYKHIVLSLIFLKFISDTFEQQRQKLIDTGYEKHIDMVQAYTKDNVFYLPAESRWSFIQQNAKQEDIALKIDTALSTIEKTNQSLKGALPDNYFSRLGLTASKLAALIDVVNNIDTIGNPEEDTVGRVYEYFLGKFAATEGKGGGEFYTPKSVVNLIAEMVEPYQGKIYDPCCGSGGMFVQSIKFIESHHGNTKDVSIYGQEYTSTTYKLAKMNLAIRGISSNLGDVAADTFFKDQHEDLKADFIMANPPFNQKDWRASDELVDDPRWAGYPTPPTGNANYAWILHMISKLSEHGTAGFVLANGSMSTTTSGEGEIRQQIIENDLVDCMIALPGQLFYTTQIPVCLWFINKDKQAKSADSKARGLRNRSGETLFIDARAIGSMISRTNKELTKDDIEAIAKTYHAWRGEKEAGGYEAYTDEAGYCKSATLDDMKANDYVLTPGRYVGAAAIEDDGISFETKMLELSQTLYAQMQASEKLDATIRQNLEVLGYGE”, the “soluble on expression in E. coli” value is listed as “not soluble”.

For the sequence “MSAASTTSTPAAAAVAPQQPESLYRVVQTLGEGAFGEVLLIVNTKNPEVAAAMKKINIANKSKDFIDNIRKEYLLQKRVSAVGHDNVIRMIGMRNDPQFYYLFLEYADGGELFDKIEPDCGMSPVFAQFYFKQLICGLKFIHDNDVVHRDIKPENLLLTGTHVLKISDFGMATLYRNKGEERLLDLSCGTIPYAAPELCAGKKYRGPPVDVWSSGIVLIAMLTGELPWDRASDASQSYMGWISNTSLDERPWKKIDVRALCMLRKIVTDKTDKRATIEQIQADPWYQHNFGQVETPNGRPLKRARNNDENITCTQQAECSAKRRHLETPNEKSTLAERQNASFSQPTKTEDLLLTQHIDMSQTNSNLLQRMVCRMTRFCVVTDIRSTYQKVARASEHAGFGVRETDDYRLLVTWREVSMMVSLYTMGDIPDKPRVMVDFRRSRGDGIQFKKMFMDVRNRMHEWICTDGNNWLANLGYVPRNPQIVNGGGVNVEHSASSINVDV”, the “soluble on expression in E. coli” value is “not soluble”.

In the case of “MKIATYNVRVDTEYDQDWQWSFRKEAVCQLINFHDWSLCCIQEVRPNQVRDLKAYTTFTCLSAEREGDGQGEGLAILYNEQKVQAIDTGYFWLSETPQQPSIHPEAGCPRIALWGLFKETTQNTPFLVINVHLDHISAHARLAGMTVILEELHDKIAQYPTLLMGDFNAESGEEVHQLVQKKFQDSKNLATHYGPRGTFQNFTYTKPWAELEEIDYIYVKGWQVQQTASLTDSIDGRFPSDHFPLEAEVCIEER”, the “soluble on expression in E. coli” value is “not soluble”.
